Data set [1] relates to MM1s (multiple myeloma) cell genome. The data set is described as follows: ctDNA coculture with MM1s cells, whole genome sequencing: genomic insertion sites, transposons at insertion points and SNVs (multiple myeloma). It is filed as cell-based, human. On the procedure:
(§1) The integration of ctDNAs into the host cell genome was evaluated. ctDNA was extracted from patient plasma, cultured for 24 hours with cells of a matching cancer cell type or non-matching cancer cell type, and whole genome sequencing was performed. The cell lines used were MM1s (multiple myeloma, MM) and MIA (pancreatic cancer, PC).
Single nucleotide variants (SNVs) unique to the ctDNA that were found in the host cell genome under matching coculture conditions were identified.
The sequence data was used to reconstruct genomic contigs for each experimental condition by de novo assembly. […] Coculture contigs carrying a ctDNA insertion were identified using NucDiff analysis. BLAST alignment analysis further validated the gain of ctDNA fragments in coculture conditions and identified the transition points of ctDNA insertion (FIGS. 3A-3C). […] The remaining 20% inserted into a chromosomal location distinct from their site of origin.
(§2) Experiments were designed to identify the presence of transposons in ctDNA fragments. To map ctDNA genomic junctions more precisely, a PACBIO probe was ligated to multiple myeloma and pancreatic cancer ctDNA samples to label their 5′ and 3′ ends. Whole-genome sequencing of DNA from cells with ctDNA genomic integration was done using the Illumina platform. De novo assembly was performed on the sequencing output. ctDNA contigs containing PACBIO adaptor were then matched to those contigs containing inserted ctDNA sequences identified in the coculture experiments. Transposable element on ctDNA sequences at the insertion points (<100 nucleotides from transition point between cell and ctDNA) were detected and classified using RepeatMaster.
(§3) A search was conducted for transposons that preferentially target cells of matching tumor types. The lists of transposons identified at the ctDNA insertion point in matching and mismatched coculture conditions were compared (e.g., MM ctDNA with MM cells or PC cells). Transposons were selected that were uniquely or preferentially inserted in the matching conditions.
In multiple myeloma, AluSp, MER11, MER11C, AluJb, and L2a, among other subfamilies of retrotransposons were identified at the MM ctDNA insertion sites (FIG. 5B and TABLE 7).
(§4) Whole-genome sequencing and Whole exon sequencing: ctDNA was extracted from 10 MM and 10 PC patients. DNA from CD138 (+) cells and from cell lines used in in vitro experiments (MM1s and MIA) was extracted using Blood & Cell Culture DNA Mini Kit (Quiagen, MD). DNA from […] paraffin embedded pancreatic tumors was obtained using QIAamp DNA FFPE Tissue Kit Print (Qiagen, MD).
After extraction, ctDNA was ligated to the PACBIO adaptor ([…]) using the ABM DNA Library Prep Kit for Illumina Sequencing (Applied Biological Materials Inc. Canada). PACBio-labeled ctDNA and regular ctDNA were subjected to standard methods for library preparation and sequencing using Illumina and Agilent protocols, respectively. Applied Biological Materials Inc. prepared the libraries and performed whole-exon and -genome sequencing. The average target coverage was 50×.
(§5) Identification of transposable elements and its nucleotide variants: To determine the locations of transposable-like regions in contigs, sequences were analyzed and transposable elements (TEs) were identified and classified using RepeatMasker version 4.1.0 and the Dfam database (release 3.1) of repetitive DNA families was used as a reference for identifying repeats in ctDNA contig sequences that were part of qualifying structural events. For each repeat sequence identified by RepeatMasker, the overall frequency of the specific repeat (e.g., for AluSp or L1) and their parent class (e.g., SINE) was computed.
Once the TE elements were identified, hit repeats/TE sequences, unique contigs for all samples, and insertion sequence were aligned with MAFFT software version. […]

Data set [2] concerns MIA (pancreatic cancer) cell genome. The data set is described as follows: ctDNA coculture with MIA cells, whole genome sequencing: genomic insertion sites, transposons at insertion points and SNVs (pancreatic cancer). It is filed as cell-based, human. As to conditions: for blast orientation: BLAST alignment orientation; for blast chr: chromosome with the longest result for BLAST analysis of the full contig; for Transposon orientation: compared with the human reference genome; for Location relative to insertion: location of the transposon relative to the insertion on the contig; for Location: identified genomic insertion site, chromosome; for No. SNP: number of single nucleotide variants (SNVs or SNPs) identified, polynucleotides for pancreatic cancer cells; for Chr location: position on the chromosome of the identified genomic insertion site. On the procedure:
as §1
The sequence data was used to reconstruct genomic contigs for each experimental condition by de novo assembly. […] Coculture contigs carrying a ctDNA insertion were identified using NucDiff analysis.
as §2, §3, §4
After extraction, ctDNA was ligated to the PACBIO adaptor ([…]) using the ABM DNA Library Prep Kit for Illumina Sequencing (Applied Biological Materials Inc. Canada). PACBio-labeled ctDNA and regular ctDNA were subjected to standard methods for library preparation and sequencing using Illumina and Agilent protocols, respectively. Applied Biological Materials Inc. prepared the libraries and performed whole-exon and -genome sequencing.
as §5
Once the TE elements were identified, hit repeats/TE sequences, unique contigs for all samples, and insertion sequence were aligned with MAFFT software version. Mutations in TE sequences were identified by comparison of nucleotides at each position in the multiple sequence alignment with the “Biostrings” R package (version 4.1). A position was considered to contain mutation if the substitution was present in contigs of all samples.

Where [3] appears, read: TABLE 8, pancreatic cancer co-culture.

Consider eight molecules from patent US20250241939A1, “NUCLEIC ACID-BASED DELIVERY SYSTEMS AND USES THEREOF” (Kodikaz Therapeutic Solutions, Inc., priority 2022, published 2025).

Turning to L1MB3, in data set [1] (TABLE 7, multiple myeloma co-culture, BLAST alignment orientation), the blast orientation entry is on record as “Plus/Plus”. Moreover, the blast chr entry in data set [1] (TABLE 7, multiple myeloma co-culture, chromosome with the longest result for BLAST analysis of the full contig) is given as “chr2”. This molecule returned a Distance from insertion in data set [1] (TABLE 7, multiple myeloma co-culture, distance between insertion and the transposon (0 if they overlap)) of −68. Besides, in data set [1] (TABLE 7, multiple myeloma co-culture, location of the transposon relative to the insertion on the contig), the “Location relative to insertion” value is reported as “right”.

B1: MLT1J2 (nucleic acid, listed as Homo sapiens)
DNA: TGTGTTAGTCAGGATAGGCTAACCTCTGTAACACACAACCCCAATTTTTCAGTGGCTCAGAACAATAGGAGTTTCTTTCTTACTCATGTAAAGTCCAGGTGTGGCAGAAACTTGCGGGGGAGAAAGTCTACTCCACAGCATCACTCAGGGACCCAGGCTCCTGCCTTACGGTGGTTCCGCCATTTTCCAGGGCCTCGGAGTCCTCCATCCCATCTCCTCCATTCAGCTGGTGGATGTGGGAGGAGAGCGTGTATGAAAGACCACACAGAAGCTTTTTTTGGGCCAGGCTTTGAGACGGCGCACATCAGTTTCGCTCTTGTTGCCCAGGCTGGAGTGCAATGGCGCAATCTCGGCTCACCGCAAAAGACACTGGGAAATTTGGTCTGGCCATGTGTCTAGGAAGCAGAGGAGATGGGGTTTCATAAACTCCTGAACTCTCTCTACCACG
On to B1, for which, in data set [2] (setting [3]), the blast orientation result is “Plus/Plus”, the blast chr result is recorded as “chr21”, the Transposon orientation entry is “direct” and the “Location relative to insertion” value is given as “intersect”. Further, the Distance from insertion in data set [2] (TABLE 8, pancreatic cancer co-culture, distance between insertion and the transposon (0 if they overlap)) is 0.

B2: 61 (nucleic acid, listed as Homo sapiens)
chain: TATTTTTAAGCAAAGACTTAGAGAGAGAGAGGAAGTTAGCTATGCACATTGTGGGTGCGGTGTGGTTAGGGTGGCCCTGAGATAGGGATATGCCTGGTGTGTTTACGGAACAGCTAAGAGGCCAGGGAACTAGAGGAAATTGAGTGGGAAGGAGAAGAGTAGGAGATTAGTTTTGAAAAGCAAATGGTTTGGGAATATGGATCATGTAAGAGCACATGAGATTTTATAAGGATTTCATTTTACTCAGGGTGAAATGAAGAAGCACTAAAA
As for B2, in data set [2] (TABLE 4), the Location entry is on record as “Chr 14”, the “No. SNP” value worked out at 1 and the Chr location is listed as 21413450.

B3: 26 (nucleic acid, listed as Homo sapiens)
chain: AATTACAACAACCCTTAATATTTGTAAAGCGCTTGATAATTCAGGGAGGGCTTTTAAAAACTTCTATCCATCTCTTCCCCCCAGCAATCCTATGAGGTAGGCAGGGCTGGAATCATTTGCTGCATTTTATCGAATAGGAAGCCATGACTCGTAGAGGTCTGGTGACTTAACTGAGGTCACCCACTGAGGACGTGGCAGAGCTGGGTCCTGAATCTGTGGCCCTCAGGCTCTTTGCCTGGCCCTGCCTCACATAGACTACGCTGCCTCT
As to B3, in data set [2] (TABLE 4, gene at identified genomic insertion site), the Gene result is recorded as “PPAC”. Further, in data set [2] (TABLE 4), the Location result was “Chr16” and the “No. SNP” value amounted to 0.

B4: MIRc (nucleic acid, listed as Homo sapiens)
DNA: AATTACAACAACCCTTAATATTTGTAAAGCGCTTGATAATTCAGGGAGGGCTTTTAAAAACTTCTATCCATCTCTTCCCCCCAGCAATCCTATGAGGTAGGCAGGGCTGGAATCATTTGCTGCATTTTATCGAATAGGAAGCCATGACTCGTAGAGGTCTGGTGACTTAACTGAGGTCACCCACTGAGGACGTGGCAGAGCTGGGTCCTGAATCTGTGGCCCTCAGGCTCTTTGCCTGGCCCTGCCTCACATAGACTACGCTGCCTCT
For B4, in data set [2] (setting [3]), the blast orientation result was “Plus/Plus”; the blast chr entry is “chr16 and chr8”; the Transposon orientation result was “direct”; the “Location relative to insertion” value is listed as “left”.

B5: 60 (nucleic acid, listed as Homo sapiens)
chain: ATTCAGAAGACAAATCTCACATGCAAAGACACACATAGGCTCAAAATAAGTGGATGGAGGAATATTTACCAAGCAAATGGCAAGCAAAAAGAAAAAGCAGGGGTTGCAATCCTAGTATCTGATAAAACAGGCTTTAAACCAAGAAAGATCAAAAAAGACAAAGAAGGTCATTACATAATGGTAAAGGGATCAATGCAACAAGAAGAGCTAACTATCCTAAATATATACGCACCCAATACAGGAGCACCCAGATTCATAAAGTAAATTCTTAGAGACTACAAAGAGACTTATACTCCCATACAATAATAGTGGGAGATTTTAACACCTCATTGTTGATATTAGATCAATGAGACAGAAAATTAACAAGGATATTCAGGACTTGAACTCAGCACTGGACAAAGCAGATTTAATAGACATCTACAGAACTCTCTACCTCAGATCAACAGAATATACATTCTTCTCAGCACCACATAGCACTTATTCTAAAATTGACCACATAATTGGAAGTAAAACACTCCTCAACGAATGCAAAAGAATGGAAATCATAACAAACAGTCTCTCAGACCACAGTGCAATCAAATTAGAACTCAGGATTACGAAACTTACTCAAAACTGCACAACTACATGGAAACTGAACAACCTGCTCCTGAACGACTACTGGGTAAATAATGAAATGAAGGCAGAAATAAATAAGTTTTTGAAACCAATGAGAACAAAGACACAACATACCAGAATCTCTGGGACACAGCTAAAACAGTG
B5: in data set [2] (TABLE 4), the Location result is “Chr 4”, the “No. SNP” value worked out at 1 and the Chr location was determined as 36939485.

B6: 67 (nucleic acid, listed as Homo sapiens)
chain: CCTTAATAGTTAATCTCCTATTAATAAGTAAGTGATTCTTTAATTAAACTTTCCTCATTCAAATGGCCATATGCTTTCTGTCTCTCGACTAGATGCTGAGTGATATACCCCCCA
modifications: listed as DNA, chemistry not fully specified
As for B6, in data set [2] (TABLE 4), the Location entry is “Chr 19”, the “No. SNP” value is 1 and the Chr location stood at 40372997.

B7: 4 (nucleic acid, listed as Homo sapiens)
chain: TGATATGGTTTGGCTGTGTCCCCACCTAAATCTCATCTTGAATTGTAGTTCCCATAATCCCCATGTGTCATGGGAGGGACCCAGTGGGAGGTAATTTAATCCTGGGGGCAGTTACCCTCCTGCTATGTGTGTGTGTGTGTGTGTGTTCTCACGAGATCTGATGGTTTTATAAGGGGCTTTTCCCCCTTCGCTCGGCACTTCTCCTTCCTGCCGCCATGTGAAGAAGGACGTGTTTGCTTCCCCTTCCGCCATGATTGTAAGTTTCCTGAGGCCTCCCCAGCCATGCNGAACTGTGAGTCAATTAAACCTCTTTCCTTTATAAATTACCCAGTCTCGGGTGTGTCTTTATTAGCAGCGTGAGAACGGACTAATACA
modifications: misc_difference 287 a, c, t, g, unknown or other
Turning to B7, the Gene result in data set [1] (gene at identified genomic insertion site, multiple myeloma) is “PI4K2B”. Also, in data set [1] (identified genomic insertion site, chromosome, multiple myeloma), the Location entry is “Chr4”. Moreover, in data set [1] (number of single nucleotide variants (SNVs or SNPs) identified, multiple myeloma), the “No. SNP” value is 2.
